Data on three molecules can be found in patent US20050182242A1, “Global analysis of protein activities using proteome chips” (priority 2001, published 2005).

B1: GPM3: yeast phosphoglycerate mutase, GST-HisX6 fusion (protein, UniProt Q12326 1-303, looked up)
Phosphoglycerate mutase 3: MTVTDTFKLFILRHGQSELNSENIFCGWIDAQLTEKGKSQARHSAKLIKQFCDSNNISLPQIGYTSRLIRTQQTMDVILEELGLKHTNYVITTNTNIKEELQDTRFEGSMPVLQTWRLNERHYGAWQGQRKPDILKEYGKEKYMYIRRDYNGKPPKVNLNLEMVQEENDQGSSTGYDFKEPNRHLKYGPEEKANERLPESESLCEVVVRLKPFLNNVVLSTANKISQESCVIVGHGSSVRSLLKVLEGISDEDIKDVDIPNGIPLVIELDRDNYSFVRKFYLDPESAKVNAQMVRDEGFEKNP
modifications: GST-His6 tag
notes: yeast phosphoglycerate mutase, GST-HisX6 fusion
B2: PYK1: yeast pyruvate kinase, GST-HisX6 fusion (protein, UniProt P00549 2-500, looked up)
Pyruvate kinase 1: SRLERLTSLNVVAGSDLRRTSIIGTIGPKTNNPETLVALRKAGLNIVRMNFSHGSYEYHKSVIDNARKSEELYPGRPLAIALDTKGPEIRTGTTTNDVDYPIPPNHEMIFTTDDKYAKACDDKIMYVDYKNITKVISAGRIIYVDDGVLSFQVLEVVDDKTLKVKALNAGKICSHKGVNLPGTDVDLPALSEKDKEDLRFGVKNGVHMVFASFIRTANDVLTIREVLGEQGKDVKIIVKIENQQGVNNFDEILKVTDGVMVARGDLGIEIPAPEVLAVQKKLIAKSNLAGKPVICATQMLESMTYNPRPTRAEVSDVGNAILDGADCVMLSGETAKGNYPINAVTTMAETAVIAEQAIAYLPNYDDMRNCTPKPTSTTETVAASAVAAVFEQKAKAIIVLSTSGTTPRLVSKYRPNCPIILVTRCPRAARFSHLYRGVFPFVFEKEPVSDWTDDVEARINFGIEKAKEFGILKKGDTYVSIQGFKAGAGHSNTLQVSTV
modifications: GST-HisX6 tag
notes: yeast pyruvate kinase, GST-HisX6 fusion
B3: SNF1: yeast protein kinase, regulator of glucose metabolism, GST-HisX6 fusion (protein, UniProt P06782 1-633, looked up)
Carbon …: MSSNNNTNTAPANANSSHHHHHHHHHHHHHGHGGSNSTLNNPKSSLADGAHIGNYQIVKTLGEGSFGKVKLAYHTTTGQKVALKIINKKVLAKSDMQGRIEREISYLRLLRHPHIIKLYDVIKSKDEIIMVIEYAGNELFDYIVQRDKMSEQEARRFFQQIISAVEYCHRHKIVHRDLKPENLLLDEHLNVKIADFGLSNIMTDGNFLKTSCGSPNYAAPEVISGKLYAGPEVDVWSCGVILYVMLCRRLPFDDESIPVLFKNISNGVYTLPKFLSPGAAGLIKRMLIVNPLNRISIHEIMQDDWFKVDLPEYLLPPDLKPHPEEENENNDSKKDGSSPDNDEIDDNLVNILSSTMGYEKDEIYESLESSEDTPAFNEIRDAYMLIKENKSLIKDMKANKSVSDELDTFLSQSPPTFQQQSKSHQKSQVDHETAKQHARRMASAITQQRTYHQSPFMDQYKEEDSTVSILPTSLPQIHRANMLAQGSPAASKISPLVTKKSKTRWHFGIRSRSYPLDVMGEIYIALKNLGAEWAKPSEEDLWTIKLRWKYDIGNKTNTNEKIPDLMKMVIQLFQIETNNYLVDFKFDGWESSYGDDTTVSNISEDEMSTFSAYPFLHLTTKLIMELAVNSQSN

One data set has as its system PI(4,5)P2 liposomes. Put plainly: Yeast proteome chip probed with PI(4,5)P2 liposomes. The note with it: liposome binding signal on yeast proteome chip, Cy3-streptavidin detection.
Turning to B1, the “PI(4, 5)P2” value is 112.57.

Turning to B2, the “PI(4, 5)P2” value is −13.06.

With B3, the “PI(4, 5)P2” value came out at 423.73.

The next data set concerns PI(3,4)P2 liposomes. Put plainly: Yeast proteome chip probed with PI(3,4)P2 liposomes. The note with it: liposome binding signal on yeast proteome chip, Cy3-streptavidin detection.
In the case of B1, the “PI(3, 4)P2” value is listed as 85.40.

In the case of B2, the “PI(3, 4)P2” value was −5.02.

With B3, the “PI(3, 4)P2” value is reported as 298.26.

The test system of the next data set is PI(3,4,5)P3 liposomes. Briefly: Yeast proteome chip probed with PI(3,4,5)P3 liposomes. The note with it: liposome binding signal on yeast proteome chip, Cy3-streptavidin detection.
On to B1, for which the “PI(3, 4, 5)P3” value was determined as 66.04.

As for B2, the “PI(3, 4, 5)P3” value was −1.12.

With B3, the “PI(3, 4, 5)P3” value is recorded as 560.70.

The next data set concerns phosphatidylcholine (PC) liposomes. Briefly: Yeast proteome chip probed with PC liposomes. The note with it: liposome binding signal on yeast proteome chip, Cy3-streptavidin detection. An outline of the steps: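 Signal comes from Cy3- or Cy5-streptavidin recognising 1% (w/w) biotin-DHPE carried in every liposome. Liposomes were PC alone or PC containing 5% (w/w) of a single phosphoinositide, applied to arrayed GST-fusion yeast proteins for 1 h at RT.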
Consider B1, for which the PC was 137.64.

Molecule B2 returned a PC of 6.46.

Take B3: the PC was 1774.37.

Another data set has as its system PI(4)P liposomes. Briefly: Yeast proteome chip probed with PI(4)P liposomes. The note with it: liposome binding signal on yeast proteome chip, Cy3-streptavidin detection.
For B1, the “PI(4)P” value is listed as 85.35.

Consider B2, for which the “PI(4)P” value is recorded as 10.45.

For B3, the “PI(4)P” value came out at 1795.06.

The subject of a further data set is PI(3)P liposomes. Briefly: Yeast proteome chip probed with PI(3)P liposomes. The note with it: liposome binding signal on yeast proteome chip, Cy3-streptavidin detection.
Take B1: the “PI(3)P” value is reported as 42.50.

As to B2, the “PI(3)P” value is reported as −9.00.

For the molecule B3, the “PI(3)P” value is on record as 202.00.

The subject of a further data set is phospholipids (phosphatidylinositols vs phosphatidylcholine). Put plainly: Proteome chip lipid-binding screen, overall analysis of six liposomes (PI/PC specificity). The note with it: phospholipid liposome probes. The text has this:
FIGS. 4A-4D. Analysis of the phosphatidylinositol-binding proteins. To determine the phosphatidylinositol (“PI”)-binding specificity of 150 positive proteins, their binding signals were normalized against the corresponding binding signals of phosphatidylcholine (“PC”). Based on the ratios (“PI/PC”), the proteins were grouped into four categories: (A) 30 strong and specific, (B) 43 strong and nonspecific, (C) 19 weak and specific, and (D) 58 weak and nonspecific phosphatidylinositol-binding proteins. The intensity represents the PI/PC signal ratio as shown by the scale in the figure. The column, labeled “10^n” to the right of the PI/PC binding ratios indicates the maximum binding signal intensity (open boxes) and its confidence interval (solid horizontal lines); the numbers indicate the log of the values. Boxes in the three columns to the right of the confidence interval column indicate membrane-associated proteins (“Membrane”), kinases (“Kinase”), and uncharacterized ORFs (“Unknown”), respectively.
To identify PI-binding proteins in yeast, liposomes were used as probes because the liposome provides the most relevant physiological condition to assay the interactors. Six types of liposomes were used. Each contains phosphatidylcholine (“PC”) with 1% (w/w) N-(biotinoyl)-1,2-dihexadecanoyl-sn-glycero-3-phosphoethanolamine, triethylammonium salt (biotin DHPE). The biotinylated lipid serves as a label that can be detected by Cy3-streptavidin (21). In addition to PC, the five other liposomes contain either 5% (w/w) PI(3)P, PI(4)P, PI(3,4)P2, PI(4,5)P2, or PI(3,4,5)P3 (FIG. 3A).
The protein-liposome interaction was assayed as follows. Appropriate amounts of each lipid in chloroform were mixed and dried under nitrogen. The lipid mixture was resuspended in TBS buffer by vortexing. The liposomes were created by sonication. Blocked proteome chips were washed three to five times in PBS buffer, and the extra liquid on the glass surface was removed by tapping the slides vertically on a KIMWIPE™. 200 μl of liposome solution was added to the proteome chip and immediately covered by a hydrophobic plastic cover slip (GRACE BIO-LAB™, USA). After trapped air bubbles were removed, the chip was incubated in a humidity chamber at RT for one hour. To remove the cover slip, the chip was immersed into large volume of PBS buffer (50 ml), so that the slip would float away. The chip was then moved to a second PBS bath (>50 ml) and washed 3×5 min with shaking at RT. After removing extra liquid on the surface of the chip, about 100 μl of Cy3 or Cy5 conjugated streptavidin (PIERCE™, USA; 1:2000 to 1:4000 dilution) was added to the surface and covered by a hydrophobic plastic cover slip (GRACE BIO-LABS™, USA). The chip was incubated for greater than 30 min in the dark at RT. The chip was then washed as described above. To completely remove the liquid on the chip, the chip was spun to dryness at 1500-2000 rpm for 5-10 min at RT.
An algorithm was devised to assist in the identification of positive signals (42). Fifty-two (35%) of the interactors (i.e., lipid-binding proteins) correspond to uncharacterized proteins thus ascribing the first biochemical activities to those proteins.
The interactors (i.e., phospholipid-binding proteins) were grouped in several ways (42). First, the interactors were sorted according to whether they bound lipids strongly or weakly, based on the phospholipid-binding signal relative to the amount of GST (FIG. 4). Slightly more (72%) of the strong lipid binding proteins (FIGS. 4A and 4B) were characterized relative to the weakly binding proteins (54%) (FIGS. 4C and 4D). Many of the strong lipid-binding proteins are membrane-associated, or are predicted to be associated with membranes, whereas fewer of the weaker binding proteins appear to be associated with membranes (FIG. 4, “Membrane” column). […] Moreover, thirteen of the seventeen protein kinases bind very strongly to the phospholipids. […]
For B1, the “identified as lipid-binding interactor” value was “identified”.

With B2, the “identified as lipid-binding interactor” value is given as “identified”.

For the molecule B3, the “identified as lipid-binding interactor” value is “identified”.
